Results on 84 variants are retold here after the RNAGym collection of RNA variant scans (doi:10.1021/acssynbio.7b00057).

To fix the notation:
B1: Pistol ribozyme (parent)
chain: GGGUCGUUGUUCCAUAAUCGCGUGGAUAUGGCACGCAAGUUUCUACCGGGCACCGUAAAUGUCCGACUGGAGCCGUUCGGGCGGCUAUAAACAGACCUCAGGCCCGAAGCGUGGCGGCACCUGCCGCCGGUGGUAAAAAAGAUCGGAAGAGCACACGUCU

In this data set the parent is B1. Description: aptazyme ON/OFF ratio, guanine; higher = stronger switching; co-transcriptional cleavage with and without guanine.
On to U7C U8A G9C U10A C13G, for which the “aptazyme ON/OFF ratio” value turned out to be 1.07.

In the case of U7C U8A G9C U10A C13A, the “aptazyme ON/OFF ratio” value was 1.17.

For the variant U7C U8A G9C U10A C13U, the “aptazyme ON/OFF ratio” value amounted to 1.24.

Consider U7C U8A G9C, for which the “aptazyme ON/OFF ratio” value is 1.04.

In the case of U7C U8A G9A U11C C12A C13G, the “aptazyme ON/OFF ratio” value came to 1.15.

U7C U8A G9A U11C C12A C13U: the “aptazyme ON/OFF ratio” value turned out to be 1.28.

For the variant U7C U8A G9A U11C C12A C13A, the “aptazyme ON/OFF ratio” value came out at 1.15.

Take U7C U8A G9A U10G U11C C12U C13G: the “aptazyme ON/OFF ratio” value was found to be 1.14.

On to U7C U8A G9A U10G U11C C12U C13A, for which the “aptazyme ON/OFF ratio” value came to 1.15.

U7C U8A G9A U10G U11C C12U C13U: the “aptazyme ON/OFF ratio” value stood at 1.17.

In the case of U7C U8A G9C U10A U11A C12A C13G, the “aptazyme ON/OFF ratio” value stood at 1.12.

On to U7C U8A G9C U10A U11A C12A C13A, for which the “aptazyme ON/OFF ratio” value was determined as 1.19.

Regarding U7C U8A G9C U10A U11A C12A C13U, the “aptazyme ON/OFF ratio” value is 1.2.

With U7C U8A G9A U10G U11G C12U, the “aptazyme ON/OFF ratio” value is 1.39.

On to U7C U8A G9A U10G U11G C12A, for which the “aptazyme ON/OFF ratio” value amounted to 1.11.

In the case of U7C U8A G9A U10G U11G C12G, the “aptazyme ON/OFF ratio” value is 1.29.

Turning to U7C U8A G9C C12U, the “aptazyme ON/OFF ratio” value came to 1.05.

With U7C U8A G9C C12A, the “aptazyme ON/OFF ratio” value is 1.17.

For U7C U8A G9C C12G, the “aptazyme ON/OFF ratio” value was found to be 1.13.

As to U7C U8A G9C C12G C13G, the “aptazyme ON/OFF ratio” value is 1.14.

Turning to U7C U8A G9C C12G C13U, the “aptazyme ON/OFF ratio” value came to 1.09.

Consider U7C U8A G9C C12G C13A, for which the “aptazyme ON/OFF ratio” value is 1.14.

On to U7C U8A G9A U10G U11A C12U C13G, for which the “aptazyme ON/OFF ratio” value came out at 1.12.

In the case of U7C U8A G9A U10G U11A C12U C13U, the “aptazyme ON/OFF ratio” value worked out at 1.06.

For the variant U7C U8A G9C U10A U11C C13A, the “aptazyme ON/OFF ratio” value stood at 1.06.

Regarding U7C U8A G9C U10A U11C C13U, the “aptazyme ON/OFF ratio” value was 1.02.

In the case of U7C U8A G9C U10A U11C C13G, the “aptazyme ON/OFF ratio” value was determined as 1.05.

Consider U7C U8A G9C U10A U11G C12G, for which the “aptazyme ON/OFF ratio” value turned out to be 1.31.

On to U7C U8A G9C U10A U11G C12U, for which the “aptazyme ON/OFF ratio” value stood at 1.21.

As to U7C U8A G9C U10A U11G C12A, the “aptazyme ON/OFF ratio” value amounted to 1.06.

Consider U7C U8A G9A U10G U11G C12A C13A, for which the “aptazyme ON/OFF ratio” value turned out to be 1.19.

Consider U7C U8A G9A U10G U11G C12A C13G, for which the “aptazyme ON/OFF ratio” value was 1.14.

On to U7C U8A G9A U10G U11G C12A C13U, for which the “aptazyme ON/OFF ratio” value was determined as 1.23.

U7C U8A G9A U10G U11C C12G: the “aptazyme ON/OFF ratio” value was 1.21.

As to U7C U8A G9A U10G U11C C12U, the “aptazyme ON/OFF ratio” value worked out at 1.07.

On to U7C U8A G9A U10G U11C C12A, for which the “aptazyme ON/OFF ratio” value is 1.2.

Regarding U7C U8A G9C U10C, the “aptazyme ON/OFF ratio” value was 2.31.

U7C U8A G9C U10A: the “aptazyme ON/OFF ratio” value worked out at 1.74.

For U7C U8A G9A U11G, the “aptazyme ON/OFF ratio” value worked out at 1.09.

With U7C U8A G9A U11A, the “aptazyme ON/OFF ratio” value was 1.17.

Consider U7C U8A G9A U11C, for which the “aptazyme ON/OFF ratio” value came to 1.06.

For the variant U7C U8A G9A U10G U11G C13A, the “aptazyme ON/OFF ratio” value amounted to 1.11.

On to U7C U8A G9A U10G U11G C13G, for which the “aptazyme ON/OFF ratio” value was found to be 1.05.

U7C U8A G9A U10G U11G C13U: the “aptazyme ON/OFF ratio” value stood at 1.04.

Consider U7C U8A G9A U11G C12G, for which the “aptazyme ON/OFF ratio” value worked out at 1.12.

As to U7C U8A G9A U11G C12A, the “aptazyme ON/OFF ratio” value was determined as 1.07.

With U7C U8A G9A U11G C12U, the “aptazyme ON/OFF ratio” value was found to be 1.37.

Turning to U7C U8A G9C U10C C12A, the “aptazyme ON/OFF ratio” value stood at 1.04.

Consider U7C U8A G9C U10A U11G C12U C13A, for which the “aptazyme ON/OFF ratio” value was 1.1.

For the variant U7C U8A G9C U10A U11G C12U C13U, the “aptazyme ON/OFF ratio” value was 1.13.

With U7C U8A G9C U10A U11G C12U C13G, the “aptazyme ON/OFF ratio” value is 1.08.

With U7C U8A G9A U10G U11A C13A, the “aptazyme ON/OFF ratio” value came to 1.04.

U7C U8A G9A U10G U11A C13U: the “aptazyme ON/OFF ratio” value was 1.03.

In the case of U7C U8A G9A U10G U11A C13G, the “aptazyme ON/OFF ratio” value amounted to 1.05.

As to U7C U8A G9C C13A, the “aptazyme ON/OFF ratio” value turned out to be 1.02.

For the variant U7C U8A G9C C13U, the “aptazyme ON/OFF ratio” value came out at 1.05.

Turning to U7C U8A G9C C13G, the “aptazyme ON/OFF ratio” value is 1.04.

On to U7C U8A G9C U10A C12A C13G, for which the “aptazyme ON/OFF ratio” value was 1.14.

With U7C U8A G9C U10A C12A C13U, the “aptazyme ON/OFF ratio” value is 1.21.

Turning to U7C U8A G9C U10A C12A C13A, the “aptazyme ON/OFF ratio” value was found to be 1.26.

Turning to U7C U8A G9A U11G C12G C13G, the “aptazyme ON/OFF ratio” value worked out at 1.12.

For the variant U7C U8A G9A U11G C12G C13A, the “aptazyme ON/OFF ratio” value is 1.12.

For U7C U8A G9A U11G C12G C13U, the “aptazyme ON/OFF ratio” value was found to be 1.13.

Take U7C U8A G9C C12A C13A: the “aptazyme ON/OFF ratio” value was 1.15.

As for U7C U8A G9C C12A C13U, the “aptazyme ON/OFF ratio” value amounted to 1.15.

U7C U8A G9C C12A C13G: the “aptazyme ON/OFF ratio” value was 1.05.

In the case of U7C U8A G9C U10A C12A, the “aptazyme ON/OFF ratio” value amounted to 1.2.

Regarding U7C U8A G9C U10A C12U, the “aptazyme ON/OFF ratio” value amounted to 1.22.

U7C U8A G9C U10A C12G: the “aptazyme ON/OFF ratio” value turned out to be 1.26.

In the case of U7C U8A G9C U10A U11A C12G C13G, the “aptazyme ON/OFF ratio” value came to 1.12.

Consider U7C U8A G9C U10A U11A C12G C13U, for which the “aptazyme ON/OFF ratio” value is 1.16.

For U7C U8A G9C U10A U11A C12G C13A, the “aptazyme ON/OFF ratio” value was 1.1.

Turning to U7C U8A G9C U10A U11C C12U C13G, the “aptazyme ON/OFF ratio” value was 1.1.

With U7C U8A G9C U10A U11C C12U C13U, the “aptazyme ON/OFF ratio” value stood at 1.12.

On to U7C U8A G9C U10A U11C C12U C13A, for which the “aptazyme ON/OFF ratio” value came to 1.18.

Regarding U7C U8A G9C U10A U11G, the “aptazyme ON/OFF ratio” value stood at 1.29.

Regarding U7C U8A G9C U10A U11A, the “aptazyme ON/OFF ratio” value was 1.27.

Take U7C U8A G9C U10A U11C: the “aptazyme ON/OFF ratio” value worked out at 1.05.

U7C U8A G9C U10A U11A C12A: the “aptazyme ON/OFF ratio” value was determined as 1.16.

For the variant U7C U8A G9C U10A U11A C12G, the “aptazyme ON/OFF ratio” value turned out to be 1.18.

As for U7C U8A G9C U10A U11A C12U, the “aptazyme ON/OFF ratio” value is 1.2.

For the variant U7C U8A G9C C12U C13G, the “aptazyme ON/OFF ratio” value worked out at 1.07.

As for U7C U8A G9C C12U C13U, the “aptazyme ON/OFF ratio” value turned out to be 1.19.

As to U7C U8A G9C C12U C13A, the “aptazyme ON/OFF ratio” value came to 1.12.
